Measured values from patent US20260250410A1, “ANTIBODY AND USE THEREOF” (SICHUAN HUIYU PHARMACEUTICAL CO., LTD., priority 2022, published 2026).

T1: HuCDCP1-C (Homo sapiens, UniProt Q9H5V8)
T1 construct: made in house; host or cells: HEK-293T
T1 sequence (Q9H5V8 30-667): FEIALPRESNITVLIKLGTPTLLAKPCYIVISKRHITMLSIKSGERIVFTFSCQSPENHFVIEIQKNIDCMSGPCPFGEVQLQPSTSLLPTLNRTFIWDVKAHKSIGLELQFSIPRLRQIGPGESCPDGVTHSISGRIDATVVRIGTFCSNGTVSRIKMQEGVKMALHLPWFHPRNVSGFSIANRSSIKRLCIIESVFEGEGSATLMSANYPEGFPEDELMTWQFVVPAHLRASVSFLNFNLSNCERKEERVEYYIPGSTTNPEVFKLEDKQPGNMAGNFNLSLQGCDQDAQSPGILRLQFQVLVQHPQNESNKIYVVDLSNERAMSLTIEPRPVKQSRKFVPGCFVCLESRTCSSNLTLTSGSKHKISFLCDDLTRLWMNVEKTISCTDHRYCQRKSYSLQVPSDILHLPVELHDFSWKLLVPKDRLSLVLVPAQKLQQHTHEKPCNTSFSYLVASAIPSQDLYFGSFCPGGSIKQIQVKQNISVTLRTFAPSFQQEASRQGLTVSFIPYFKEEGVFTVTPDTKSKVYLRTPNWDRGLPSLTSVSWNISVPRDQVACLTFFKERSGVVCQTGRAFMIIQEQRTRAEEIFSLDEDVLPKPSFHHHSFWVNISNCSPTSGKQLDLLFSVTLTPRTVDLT


Target: T1, HuCDCP1-C
Test: Caterra affinity of humanized anti-CDCP1 antibodies
Assay type: binding
Settings: HuCDCP1-C 2 μg/ml immobilized
Protocol: The humanized anti-CDCP1 antibodies obtained from Example 11 were subjected to gene cloning, constructed into pTT5 expression vector for a small amount of expression in CHO cells (Expi-CHOS: Gibco A29127), and purified with an Fc affinity column (AT Protein A Diamond Plus. No. AA402312). Antibody purity was analyzed by HPLC and determined by Nanodrop. High-throughput affinity assay was carried out for a small amount of antibodies by Caterra.

ka [M⁻¹ s⁻¹]	kd [s⁻¹]	Molecule
108000	0.000388	1CP-153: humanized anti-CDCP1 antibody produced by 8C9; VH SEQ ID NO: 345, VL SEQ ID NO: 354 (antibody, V domains shown, humanized antibody 8C9 heavy chain variable region 03; humanized antibody 8C9 light chain variable region 01) VH: EVQLVESGGGLVQPGRSLRLSCTTSGLTFTHYHMSWVRQAPGKGPEWVAIIRNKAYGYTTDYSASVRGRFTISRDDSKSILYLQMNSLKTEDTAVYYCVREGGYGYDGTFAYWGQGTLVTVSS VL: DIQMTQSPSSLSASVGDRVTITCRASESVDNYGISFMNWFQQKPGQAPKLLIYAASNQGSGVPSRFSGSGSGTDFTLTISSMQPEDFATYYCQQSKEVPRTFGGGTKVEIK
109000	0.000321	1CP-158: humanized anti-CDCP1 antibody produced by 8C9; VH SEQ ID NO: 346, VL SEQ ID NO: 355 (antibody, V domains shown, humanized antibody 8C9 heavy chain variable region 04; humanized antibody 8C9 light chain variable region 02) VH: EVQLVESGGGLVQPGRSLRLSCTTSGLTFTHYHMSWVRQPPGKAPEWVAIIRNKAYGYTTDYSASVRGRFTISRDDSKSILYLQMNSLKTEDTAVYYCVREGGYGYDGTFAYWGQGTLVTVSS VL: DIQMTQSPSSLSASVGDRVTITCRASESVDNYGISFMNWFQQKPGQPPKLLIYAASNQGSGVPSRFSGSGSGTDFTLTISSMQPEDFATYYCQQSKEVPRTFGGGTKVEIK
110000	0.00042	1CP-160: humanized anti-CDCP1 antibody produced by 8C9; VH SEQ ID NO: 344, VL SEQ ID NO: 356 (antibody, V domains shown, humanized antibody 8C9 heavy chain variable region 02; humanized antibody 8C9 light chain variable region 03) VH: EVQLVESGGGLVQPGRSLRLSCTTSGLTFTHYHMSWVRQAPGKGLEWVAIIRNKAYGYTTDYSASVRGRFTISRDDSKSILYLQMNSLKTEDTAVYYCVREGGYGYDGTFAYWGQGTLVTVSS VL: DIQMTQSPSSLSASVGDRVTITCRASESVDNYGISFMNWFQQKPGQPPKLLIYAASNQGSGVPSRFSGSGSGTDFTLTISSMQPEDFATYFCQQSKEVPRTFGGGTKVEIK
118000	0.000346	1CP-154: humanized anti-CDCP1 antibody produced by 8C9; VH SEQ ID NO: 346, VL SEQ ID NO: 354 (antibody, V domains shown, humanized antibody 8C9 heavy chain variable region 04; humanized antibody 8C9 light chain variable region 01) VH: EVQLVESGGGLVQPGRSLRLSCTTSGLTFTHYHMSWVRQPPGKAPEWVAIIRNKAYGYTTDYSASVRGRFTISRDDSKSILYLQMNSLKTEDTAVYYCVREGGYGYDGTFAYWGQGTLVTVSS VL: DIQMTQSPSSLSASVGDRVTITCRASESVDNYGISFMNWFQQKPGQAPKLLIYAASNQGSGVPSRFSGSGSGTDFTLTISSMQPEDFATYYCQQSKEVPRTFGGGTKVEIK
18000	0.000767	1CP-159: humanized anti-CDCP1 antibody produced by 8C9; VH SEQ ID NO: 343, VL SEQ ID NO: 356 (antibody, V domains shown, humanized antibody 8C9 heavy chain variable region 01; humanized antibody 8C9 light chain variable region 03) VH: EVQLVESGGGLVQPGRSLRLSCTASGLTFTHYHMSWFRQAPGKGLEWVAIIRNKAYGYTTDYSASVRGRFTISRDDSKSILYLQMNSLKTEDTAVYYCVREGGYGYDGTFAYWGQGTLVTVSS VL: DIQMTQSPSSLSASVGDRVTITCRASESVDNYGISFMNWFQQKPGQPPKLLIYAASNQGSGVPSRFSGSGSGTDFTLTISSMQPEDFATYFCQQSKEVPRTFGGGTKVEIK
114000	0.000365	1CP-161: humanized anti-CDCP1 antibody produced by 8C9; VH SEQ ID NO: 345, VL SEQ ID NO: 356 (antibody, V domains shown, humanized antibody 8C9 heavy chain variable region 03; humanized antibody 8C9 light chain variable region 03) VH: EVQLVESGGGLVQPGRSLRLSCTTSGLTFTHYHMSWVRQAPGKGPEWVAIIRNKAYGYTTDYSASVRGRFTISRDDSKSILYLQMNSLKTEDTAVYYCVREGGYGYDGTFAYWGQGTLVTVSS VL: DIQMTQSPSSLSASVGDRVTITCRASESVDNYGISFMNWFQQKPGQPPKLLIYAASNQGSGVPSRFSGSGSGTDFTLTISSMQPEDFATYFCQQSKEVPRTFGGGTKVEIK
15800	0.000579	1CP-155: humanized anti-CDCP1 antibody produced by 8C9; VH SEQ ID NO: 343, VL SEQ ID NO: 355 (antibody, V domains shown, humanized antibody 8C9 heavy chain variable region 01; humanized antibody 8C9 light chain variable region 02) VH: EVQLVESGGGLVQPGRSLRLSCTASGLTFTHYHMSWFRQAPGKGLEWVAIIRNKAYGYTTDYSASVRGRFTISRDDSKSILYLQMNSLKTEDTAVYYCVREGGYGYDGTFAYWGQGTLVTVSS VL: DIQMTQSPSSLSASVGDRVTITCRASESVDNYGISFMNWFQQKPGQPPKLLIYAASNQGSGVPSRFSGSGSGTDFTLTISSMQPEDFATYYCQQSKEVPRTFGGGTKVEIK
113000	0.000305	1CP-162: humanized anti-CDCP1 antibody produced by 8C9; VH SEQ ID NO: 346, VL SEQ ID NO: 356 (antibody, V domains shown, humanized antibody 8C9 heavy chain variable region 04; humanized antibody 8C9 light chain variable region 03) VH: EVQLVESGGGLVQPGRSLRLSCTTSGLTFTHYHMSWVRQPPGKAPEWVAIIRNKAYGYTTDYSASVRGRFTISRDDSKSILYLQMNSLKTEDTAVYYCVREGGYGYDGTFAYWGQGTLVTVSS VL: DIQMTQSPSSLSASVGDRVTITCRASESVDNYGISFMNWFQQKPGQPPKLLIYAASNQGSGVPSRFSGSGSGTDFTLTISSMQPEDFATYFCQQSKEVPRTFGGGTKVEIK
123000	0.000441	1CP-156: humanized anti-CDCP1 antibody produced by 8C9; VH SEQ ID NO: 344, VL SEQ ID NO: 355 (antibody, V domains shown, humanized antibody 8C9 heavy chain variable region 02; humanized antibody 8C9 light chain variable region 02) VH: EVQLVESGGGLVQPGRSLRLSCTTSGLTFTHYHMSWVRQAPGKGLEWVAIIRNKAYGYTTDYSASVRGRFTISRDDSKSILYLQMNSLKTEDTAVYYCVREGGYGYDGTFAYWGQGTLVTVSS VL: DIQMTQSPSSLSASVGDRVTITCRASESVDNYGISFMNWFQQKPGQPPKLLIYAASNQGSGVPSRFSGSGSGTDFTLTISSMQPEDFATYYCQQSKEVPRTFGGGTKVEIK
